Measured values reported in the supplement of paper PMC7877785.
± gives the uncertainty stated by the source.

Assay: self-splicing fitness, log relative to wild type (ln ratio); higher = more splicing; Tetrahymena group I intron in knt gene, E. coli kanamycin selection, DiMSum; sequences stand for … in CUCUCU…GGAGGGAAAAGUUAUCAGGCAUGCACCUGGUAGCUAGUCUUUAAACCAAUAGAUUGCAUCGGUUUAAAAGGCAAGACCGUCAAAUUGCGGGAAAGGGGUCAACAGCCGUUCAGUACCAAGUCUCAGGGGAAACUUUGAGAUGGCCUUGCAAAGGGUAUGGUAAUAAGCUGACGGACAUGGUCCUAACCACGCAGCCAAGUCCUAAGUCAACAGAUCUUCUGUUGAUAUGGAUGCAGUUCACAGACUAAAUGUCGGUCGGGGAAGAUGUAUUCUUCUCAUAAGAUAUAGUCGGACCUCUCCUUAAUGGGAGCUAGCGGAUGAAGUGAUGCAACACUGGAGCCGCUGGGAACUAAUUUGUAUGCGAAAGUAUAUUGAUUAGUUUUGGAGUACUCGUGGUCG
Procedure, shortened: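 Fitness was computed with DiMSum as the error-weighted combination of replicate fold changes, kanamycin versus none, each normalised to wild type. The library randomised all eight intron nucleotides of the P1ex region, with the intron placed in the knt kanamycin-resistance gene on pET-22b(+) in E. coli BL21(DE3). Six replicate transformations were grown overnight at 37°C or 30°C on LB agar with or without 25 μg/mL kanamycin, plus 100 μg/mL carbenicillin, 50 μM IPTG and 0.2% rhamnose. Pooled colonies were amplicon-sequenced on an Illumina HiSeq 2500.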

| Sequence | self-splicing fitness (ln) (30 °C) | self-splicing fitness (ln) (37 °C) |
| --- | --- | --- |
| UACGAGCAAUAUUACGGGGU | -3.05 ± 0.14 | -2.28 ± 0.14 |
| CUUUAGCAAUAUUACGUGCG | -2.29 ± 0.14 | -1.12 ± 0.12 |
| CGAUAGCAAUAUUACGUGUA | -2.23 ± 0.12 | -2.15 ± 0.2 |
| UGCAAGCAAUAUUACGGCCG | -0.266 ± 0.075 | 0.134 ± 0.099 |
| UAGUAGCAAUAUUACGCUGG | -1.13 ± 0.099 | -1.34 ± 0.15 |
| GGAGAGCAAUAUUACGGCGA | -2.22 ± 0.27 | -1.69 ± 0.28 |
| AGGAAGCAAUAUUACGUGAU | -3.24 ± 0.13 | -2.57 ± 0.18 |
| AAAAAGCAAUAUUACGCUAG | -1.41 ± 0.086 | -0.619 ± 0.085 |
| UUAUAGCAAUAUUACGCACG | -1.18 ± 0.15 | -0.14 ± 0.18 |
| UACUAGCAAUAUUACGGCGA | -0.849 ± 0.11 | 0.621 ± 0.13 |
| UGAUAGCAAUAUUACGAUUU | -1.76 ± 0.1 | -1.13 ± 0.12 |
| GUCCAGCAAUAUUACGUACC | -1.08 ± 0.15 | -1.74 ± 0.24 |
| GCAUAGCAAUAUUACGUUAG | -2.48 ± 0.12 | -1.96 ± 0.15 |
| AUCUAGCAAUAUUACGAUUG | -3.1 ± 0.28 | -2.79 ± 0.34 |
| AUUUAGCAAUAUUACGUGCU | -2.78 ± 0.11 | -0.856 ± 0.1 |
| GAAGAGCAAUAUUACGCUUU | -4.12 ± 0.3 | -1.91 ± 0.28 |
| AUAGAGCAAUAUUACGUAAA |  | -1.57 ± 0.24 |
| CCAAAGCAAUAUUACGAACU | -2.89 ± 0.29 | -2.13 ± 0.38 |
| CGGGAGCAAUAUUACGGUAA | -3.01 ± 0.34 | -1.13 ± 0.21 |
| UGGUAGCAAUAUUACGAAUG | -1.95 ± 0.12 | -1.02 ± 0.12 |
| GGUUAGCAAUAUUACGUUGC | -2.41 ± 0.22 | -1.12 ± 0.42 |
| AUGUAGCAAUAUUACGUAAG | -2.99 ± 0.2 | -2.93 ± 0.2 |
| CUACAGCAAUAUUACGAAUG | -0.558 ± 0.059 | -0.464 ± 0.075 |
| CUUUAGCAAUAUUACGAGUA | -2.85 ± 0.22 | -3.63 ± 0.42 |
| UACGAGCAAUAUUACGAACG | -2.96 ± 0.26 | -2.05 ± 0.16 |
| CACUAGCAAUAUUACGUCGC | -3.66 ± 0.24 | -2.66 ± 0.27 |

| Sequence | self-splicing fitness (ln) (30 °C) | self-splicing fitness (ln) (37 °C) |
| --- | --- | --- |
| AUCAAGCAAUAUUACGAGGG | -2.85 ± 0.19 | -1.39 ± 0.19 |
| GGGUAGCAAUAUUACGAGUU | -0.948 ± 0.092 | -1.38 ± 0.2 |
| CAGAAGCAAUAUUACGCGAC |  | -2.94 ± 0.32 |
| AACCAGCAAUAUUACGGCUG | -3.63 ± 0.14 | -3.05 ± 0.16 |
| UUAUAGCAAUAUUACGACUC | -1.94 ± 0.19 | -1.94 ± 0.24 |
| ACUGAGCAAUAUUACGAUGC | -2.69 ± 0.16 | -0.416 ± 0.15 |
| UCCGAGCAAUAUUACGCUUA | -2.39 ± 0.41 | -2.47 ± 0.39 |
| AUAAAGCAAUAUUACGUCAU | -0.954 ± 0.056 | -0.228 ± 0.083 |
| AAACAGCAAUAUUACGCCUG | -1.99 ± 0.096 | -0.538 ± 0.1 |
| UGGUAGCAAUAUUACGUGUA | -2.09 ± 0.13 | -0.721 ± 0.1 |
| UACAAGCAAUAUUACGUGUU | -2.85 ± 0.081 | -1.58 ± 0.11 |
| AUCGAGCAAUAUUACGUCUG | -3.46 ± 0.34 | -1.43 ± 0.19 |
| AGGAAGCAAUAUUACGAUGU | -1.51 ± 0.087 | -0.634 ± 0.1 |
| UCCGAGCAAUAUUACGAAGC |  | -1.15 ± 0.36 |
| CCCAAGCAAUAUUACGGCUU | -4.22 ± 0.22 | -3.15 ± 0.17 |
| GGCAAGCAAUAUUACGACCG | -0.371 ± 0.11 | -0.482 ± 0.15 |
| CUAGAGCAAUAUUACGGAAC | -1.38 ± 0.17 |  |
| GGUUAGCAAUAUUACGGCAC | -0.473 ± 0.15 | -0.251 ± 0.18 |
| ACGAAGCAAUAUUACGUUCA | -1.14 ± 0.05 | -0.417 ± 0.057 |
| AUCUAGCAAUAUUACGAGAG | -1.88 ± 0.11 | -0.329 ± 0.1 |
| CUGUAGCAAUAUUACGCAUC | -3.45 ± 0.32 | -2.69 ± 0.34 |
| AUCUAGCAAUAUUACGCGUA | -0.86 ± 0.11 | -0.721 ± 0.13 |
| CGGAAGCAAUAUUACGCAGU | -2.73 ± 0.14 | -2.25 ± 0.21 |
| CUCCAGCAAUAUUACGACGG | -3.56 ± 0.23 | -2.42 ± 0.24 |
| GCGAAGCAAUAUUACGCGUC |  | -1.65 ± 0.17 |
| CACAAGCAAUAUUACGUGCU | -3.93 ± 0.18 | -2.79 ± 0.15 |

| Sequence | self-splicing fitness (ln) (30 °C) | self-splicing fitness (ln) (37 °C) |
| --- | --- | --- |
| UGAGAGCAAUAUUACGGUGU | -2.98 ± 0.24 | -2.36 ± 0.29 |
| GUAGAGCAAUAUUACGGCGA | -1.87 ± 0.13 | -0.23 ± 0.16 |
| CCCCAGCAAUAUUACGUACG | -3.95 ± 0.26 | -1.89 ± 0.17 |
| UUAUAGCAAUAUUACGGAAG | -2.21 ± 0.26 | -1.77 ± 0.26 |
| AGGCAGCAAUAUUACGCUGG | -3.73 ± 0.22 | -1.2 ± 0.17 |
| CCUCAGCAAUAUUACGCAAG | -3.31 ± 0.17 | -1.71 ± 0.14 |
| UUCCAGCAAUAUUACGGUCA | -0.23 ± 0.084 | 0.239 ± 0.1 |
| GGCUAGCAAUAUUACGCAGC |  | -2.29 ± 0.39 |
| GUGGAGCAAUAUUACGUGAU | -2.49 ± 0.12 | -1.6 ± 0.12 |
| CUCCAGCAAUAUUACGACUU | -3.85 ± 0.26 | -2.15 ± 0.19 |
| AUCUAGCAAUAUUACGCAAU | -2.02 ± 0.089 | -1.37 ± 0.09 |
| CUCAAGCAAUAUUACGCUAG | -4.26 ± 0.32 | -2.35 ± 0.14 |
| UCACAGCAAUAUUACGGGGC | -4.05 ± 0.21 | -2.4 ± 0.15 |
| CCUCAGCAAUAUUACGGUUU | -3.37 ± 0.13 | -2.73 ± 0.16 |
| ACGAAGCAAUAUUACGGUCG | -0.954 ± 0.066 | -0.311 ± 0.082 |
| CCAUAGCAAUAUUACGCGCU | -3.87 ± 0.27 | -3.05 ± 0.4 |
| UAAAAGCAAUAUUACGUGUU | -4.13 ± 0.15 | -2.63 ± 0.14 |
| GGUAAGCAAUAUUACGAUGU | -1.2 ± 0.061 | -0.805 ± 0.074 |
| AAGAAGCAAUAUUACGGACU | 0.093 ± 0.073 | -0.443 ± 0.083 |
| GGUCAGCAAUAUUACGCCUG | -2.9 ± 0.2 | -0.721 ± 0.12 |
| CGGGAGCAAUAUUACGAGUU | -3.12 ± 0.27 | -2.59 ± 0.36 |
| AAUCAGCAAUAUUACGUAGG | -1.61 ± 0.056 | -0.958 ± 0.077 |
| UAAAAGCAAUAUUACGACCC | -1.73 ± 0.28 | 0.481 ± 0.33 |
| GUUCAGCAAUAUUACGGGUU | -1.65 ± 0.089 | -0.108 ± 0.083 |
| GUGCAGCAAUAUUACGUGUG | -2.95 ± 0.11 | -1.33 ± 0.1 |
| UAACAGCAAUAUUACGACCC | -2.15 ± 0.18 | -1.42 ± 0.19 |
